± gives the standard error. For some assays here: This sample holds only a part of the variants without activity.
B1: glmS ribozyme (parent)
chain: AUAAAAGCGCCAGAACUACAGAAAUGUAGUUGACGAGGAGGAGGUUUAUCGAAUUUUCGGCGGAUGCCUCCAAA

Tests used:
Details in all cases: with glucosamine-6-phosphate
glucosamine-6-phosphate [1] = variants of: B1; experiment: kcat; higher = faster cleavage; RNA array
In short: (§1)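 Sequenced MiSeq chips were the platform: E. coli RNA polymerase transcribed barcoded ribozyme variants on them in situ, and a hybridised Cy3 probe tracked these at 37 °C. After glucosamine-6-phosphate (40 μM to 10 mM) in HEPES/KCl/Mg(OAc)2 buffer was flowed in, tiles were imaged over ~14 h. Signals normalised to baseline and to non-cleaving reference variants were reduced to per-tile medians and fit to one- or two-exponential decays to obtain kobs. kcat and KM were derived through weighted Michaelis–Menten fits across concentrations.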

glucosamine-6-phosphate [2] = variants of: B1; experiment: KM; higher = weaker cofactor use; RNA array
In short: as §1

glucosamine-6-phosphate [3] = variants of: B1; experiment: self-cleavage kobs at 160 uM GlcN6P; higher = faster cleavage; RNA array
In short: as §1

glucosamine-6-phosphate [4] = variants of: B1; experiment: self-cleavage kobs at 640 uM GlcN6P; higher = faster cleavage; RNA array
In short: as §1

glucosamine-6-phosphate [5] = variants of: B1; experiment: self-cleavage kobs at 2500 uM GlcN6P; higher = faster cleavage; RNA array
In short: as §1

glucosamine-6-phosphate [6] = variants of: B1; experiment: self-cleavage kobs at 10000 uM GlcN6P; higher = faster cleavage; RNA array
In short: as §1

glucosamine-6-phosphate [7] = variants of: B1; experiment: self-cleavage kobs at 40 uM GlcN6P; higher = faster cleavage; RNA array
In short: as §1

| Variant | kcat (glucosamine-6-phosphate [1]) | KM (glucosamine-6-phosphate [2]) | self-cleavage kobs at 160 uM GlcN6P (glucosamine-6-phosphate [3]) | self-cleavage kobs at 640 uM GlcN6P (glucosamine-6-phosphate [4]) | self-cleavage kobs at 2500 uM GlcN6P (glucosamine-6-phosphate [5]) | self-cleavage kobs at 10000 uM GlcN6P (glucosamine-6-phosphate [6]) | self-cleavage kobs at 40 uM GlcN6P (glucosamine-6-phosphate [7]) |
| --- | --- | --- | --- | --- | --- | --- | --- |
| AUAAAAGCGCCAGAACUACAGAAAUGUAAUGGACGAGGAGGAGGUUUAUCGAAUUUUCGGCGGAUGCCUCCAAA [G29A U31G] | 0.000319 ± 2.2e-05 s⁻¹ | 1380 ± 180 µM | 3.63e-05 ± 1e-05 s⁻¹ | 9.51e-05 ± 1.6e-05 s⁻¹ | 0.000217 ± 3.4e-05 s⁻¹ | 0.000272 ± 5.4e-05 s⁻¹ |  |
| AUAAAAGCGCCAGAACUACAGAAAUGUAAUUAACGAGGAGGAGGUUUAUCGAAUUUUCGGCGGAUGCCUCCAAA [G29A G32A] | 0.00111 ± 7.1e-05 s⁻¹ | 2000 ± 220 µM | 8.75e-05 ± 1.7e-05 s⁻¹ | 0.000239 ± 6.2e-05 s⁻¹ | 0.000588 ± 0.00013 s⁻¹ | 0.000945 ± 0.00013 s⁻¹ | 2.33e-05 ± 8.5e-06 s⁻¹ |
| AUAAAAGCGCCAGAACUACAGAAAUGUAAUUCACGAGGAGGAGGUUUAUCGAAUUUUCGGCGGAUGCCUCCAAA [G29A G32C] | 0.000144 ± 1.8e-05 s⁻¹ | 5140 ± 1500 µM |  |  | 5.01e-05 ± 9.3e-06 s⁻¹ | 9.45e-05 ± 9.1e-06 s⁻¹ |  |
| AUAAAAGCGCCAGAACUACAGAAAUGUAAUUGACGAGGAGGAGGUUAAUCGAAUUUUCGGCGGAUGCCUCCAAA [G29A U47A] | 0.00354 ± 0.0016 s⁻¹ |  | 0.000152 ± 2.6e-05 s⁻¹ | 0.000727 ± 0.00012 s⁻¹ | 0.00153 ± 0.00024 s⁻¹ | 0.00308 ± 0.00042 s⁻¹ | 0.000101 ± 1.2e-05 s⁻¹ |
| AUAAAAGCGCCAGAACUACAGAAAUGUAAUUGACGAGGAGGAGGUUCAUCGAAUUUUCGGCGGAUGCCUCCAAA [G29A U47C] | 0.000269 ± 1.9e-05 s⁻¹ | 1400 ± 310 µM |  | 8.17e-05 ± 2.3e-05 s⁻¹ | 0.000223 ± 9.2e-05 s⁻¹ | 0.000233 ± 3.2e-05 s⁻¹ |  |
| AUAAAAGCGCCAGAACUACAGAAAUGUAAUUGACGAGGAGGAGGUUUAUCGAAUUUUCUGCGGAUGCCUCCAAA [G29A G59U] | 1.01e-05 ± 3.5e-06 s⁻¹ |  |  | < 1e-05 s⁻¹ |  |  |  |
| AUAAAAGCGCCAGAACUACAGAAAUGUAAUUGACGAGGAGUAGGUUUAUCGAAUUUUCGGCGGAUGCCUCCAAA [G29A G41U] | 9.86e-05 ± 5e-06 s⁻¹ | 1050 ± 200 µM |  | 3.55e-05 ± 1.5e-05 s⁻¹ | 7.35e-05 ± 1.6e-05 s⁻¹ | 8.74e-05 ± 1.5e-05 s⁻¹ |  |
| AUAAAAGCGCCAGAACUACAGAAAUGUAAUUGACGAGGAGGAGGUGUAUCGAAUUUUCGGCGGAUGCCUCCAAA [G29A U46G] | 0.00124 ± 0.00055 s⁻¹ |  | 5.62e-05 ± 1.3e-05 s⁻¹ | 0.000243 ± 4.1e-05 s⁻¹ | 0.000425 ± 7.7e-05 s⁻¹ | 0.00128 ± 0.00027 s⁻¹ |  |
| AUAAAAGCGCCAGAACUACAGAAAUGUAAUUGACGAUGAGGAGGUUUAUCGAAUUUUCGGCGGAUGCCUCCAAA [G29A G37U] | < 1e-05 s⁻¹ |  |  |  |  |  |  |

— the supplement of paper PMC7125110
